Test results taken from the RNAGym collection of RNA variant scans (doi:10.1073/pnas.2313332121).

B1: TPR t1 (parent)
chain: GACCAAUCUGCCCUCAGAGCUCGAGAACAUCUUCGGAUGCAGAGGAGGCAGGCUUCGGUGGCGCGAUAGCGCCAACGUCCUCAACCUCCAAUGCAUCCCACCACAUGAUGAUGCCUGAAGAGCCUUGGUUUUUUG

Variants of: B1
Assay: polymerase ribozyme fitness, log enrichment relative to wild type (log ratio); higher = more active; in vitro selection for triplet polymerase activity
Procedure, shortened: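 Both subunits of a heterodimeric triplet polymerase ribozyme were given their own mutant library, built by PCR and transcribed. Each library was annealed with a biotinylated primer, the partner subunit and triplets, incubated frozen at −7 °C, and its extended constructs gel-excised, captured on streptavidin beads and amplified by RT-PCR, all in one round done in triplicate. Fitness is the logarithm of genotype enrichment relative to wild-type enrichment, with replicates averaged by inverse-variance weighting. That logarithm is base 2, and Illumina-sequenced genotypes needed ≥10 input reads and ≥1 read per output.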

Variant | polymerase ribozyme fitness (log ratio)
GACCAAUCUGCCCUCAGAGCUCGAGAACAACUUCGGAUGCAGAGGAGGCAGGCUUCGGUGGCGCGAUAGCGGCAACGUCCUCAACCUCCAAUGCAUCCCACCACAUGAUGAUGCCUGAAGAGCCUUGGUUUUUUG | -6.04
GACCAAUCUGCCCUUAGAGCUCGAGAACAUCUUCGGAUGCAGAGGAGGCAGGCUUCGGUGGCGCGAUAGCGCCAACGUCCUCAACCUCCAAUGCAUCCCACCACAUGAUGAUGCCUGAAGAGCCUUGGUUUUUUU | -2.12
GACCAAUCUGCCCUCAGAGCUCGAGAACUUCUUCGGAUGCAGAGCAGGCAGGCUUCGGUGACGCGAUAGCGCCAACGUCCUCAACCUCCAAUGCAUCCCACCACAUGAUGGUGCCUGAAGAGCGUUGGUUUUUUG | -3.05
GACCAAUCUGCCCUCAGAGCUCGAGAACAUCUUCGGAUGCAGAGGAGGCAGGCUUCGGUCGCGCGAUAGCGCCAACGUCCUCAACCUCCAAUGCAUCCCACCACAUGAUGAUGCAUGAAGAGCCUUGGUUUUUUG | 0.199
GACCAAUCUGCCCUCAGAGCUCGAGAACAUCUUCGGAUGCAGAGGAGGCAGACUUCGGUGGCGCGAUAGAGCCAACGUCCUCAACCUCCAAACCAUCCCACCACUUGAUGAAGCAUGAAGAGCCUUGGUCUUUUG | -6.48
GACCAAUCUGCCCUCAGAGCUCGAGAUCACCUUCGGAUGCAGAGGAGGCAGGCUUCGGUGGCGCGAUAGCGCCAAAGUCCUCAACCUCCAAUGCAUCCGACAACUUGAUGAUGCUUGAAGAGCCUUGGUUUUUUG | -6.7
GACCAAUCUGCCCUCAGAGCUCGAGAACAUCUUCGGAUGCAGAGGAGGCAUGCUUCGGUGGCGCGAUCGCGCCAACGUCCUCAACCUCCACUGCAUCCCACCACAUGAUCAUGCCUGAAGAGCCUUGGUUUUUUG | -7.47
GACCAAUCUGCCCUCAGAGCUCGAGAACAUCUUCGGAUGCAGGGGUGGCAGGCUUCGGUGGCGCGAUAGCGCCAACGUCCUCAACCUCCAAUGCAUCCCACCACAUGAUGAGGCCUGAAGAGCCUUGGUUUUUUG | -3.43
GACCAAUCUGCCCUCAGAGCUCGAGAACAUCUUCGGAUGCAGUGGUGGCAGGCUUCGGUGGCGCGAUAGCGCCAACGUCCUCAACCUCCAAUGCAUCCCACCACAUGAUGAUGCCUGAAGAGCCUUGGUUUUUUG | -2.27
GACCAAUCUGCCCUCAGAGCUCGAGAACAUCUUCGGAUGCAGAGGAGGCAGGCUUCGGUGGGGCGAUAGCGCCAACGUCCUCAACCUCCGAUGCAUUCCACCACAUGAUGCUGCCUGAAGAGCCUUGGUUUUUUG | -1.19
GACCAAUCUGUCCUCAGAGCUCGAGAACAUCAUCGGAUGCAGAGGAGGCAGGCUUCGGUGGCGCGAUAGCGCCAACGUCCUCAACCUCCAAUACAUCCCUCCACGUGAUGAUGCCUGAAGAGCCUUGGUUUUUUG | -4.99
GACCAAUCUGCGCUCAGAGCUCGAGAACAUCUUCGGAUGCAGAGGAGGAAGGCUUCGGUGGCGCGAUAGCGCCAACCUCCUCAACCUCCAAUGCAUCCCACCACAUGAUGAUGCCUGAAGAGCCUUGGUUUUUUG | -0.254
GACCAAGCUGCCCUCAGAGCUCGAGAACAUCUUCGGACGCAGAGUAGGCAGGCUUCGGUGGCGCGAUAGCGCCAACGUCCUCAACCUCCAAUGCAUUCCACCACAUGAUGAUGCCUGAAGAGCCUUGGUUUUGUG | -2.84
GACCAAUCUGCCCUCAGAGCUCGAGAACAUCUUCGGAUGGAGAGGAGGCUGGCUUCGGUGACGCGAUAGCGCCAACGUUCUCAAGCUCCAAUGCAUCCCACCACAUGAUGAUGCCUUAAGUGCCUUGGUUUUUAG | -2.53
GACCAAUCUGCCCUCAGAGCUCGAGAACAUCUUCGGAUGCAGAGGAGGCAUGAUUCGGUAGCGCGAUAGCGCCAACGUCCUCAACCUCCAAUGCAUCCCACCACAUGAUGAUGCCUGAAGAGCCUUGGUUUUUUG | -5.54
GACCAAUCUGCCCUCAGAGCUCGAGAACAUCUUCGGAUGCAGAGGAGGCAGGCUUCGGUGGCGCGAUAGCGCCUACGUCCUCAACCUCCAAUGCAUCCCACCACAUGAUGAUGCGUGAAGAGCCUUGGAAUUUUG | -2.87
GACCAAUCUGCCCUCAGAGCUCGAGAACAUCUUCGGAUGCAGAGGAGGCAGGCUUCAGUGGCGCGAUAGCGCCAACGUCCUCAACCUCCAAUGCAUCGCACCACAUGAUGAAGCCUGAAGAGCCUUGGUUUUUUG | -6.12
GACCAAUCUGUCCUCAGAGCUCGAGAACAUCUUCGGAUGCAGAGGAGGCAGGCUUCGGUGGCGCGAUAGCGCCAACGUCCUCAACCUCCAAUGCAUCCCACCACAUGAUGAUGCCUGAAGAGCCUUGGUUUUUUU | -1.81
GACCAAUCUGCCCUCAGAGCUCGAGAACAUCUUCGGAUGCAGAGGAGGCAGGCUUCGGAGGCGCGAUAGCGCCAACGUCCUCAACCUCAAAUGCAUCCCAUCACAUGAUGAUUCCUGAAGAGCCUUGGUUUUUUG | -3.68
GAUCAAUCUGCCCUCAGAGCUCGAGAACAUCUUCGGAUGUAGAGGAGGCAGGCUUCGGUGGCGCGAUAGCGCCAACGUCCUCAACCUCCAAUGCAUCCCACCACAUGAUGAUGCCUGAAGAGCCUUGGUUUUUUG | -1.92
GACCAAUCUGCCCUCAGAGCUCGAGAACAUCUUCGGAUGCAGAGGAGGCAGGCUUUGGUGGCGCGAUAGCGCCAACGUCAUCAACCUCCAAUGCAUUCCACCACAUGAUGAUGCCUGAAGAGCCUUGGUUUUUUG | -2.71
